Assay results reported in patent US20060177862A1 (CAMBRIDGE ANTIBODY TECHNOLOGY, published 2006).

Molecular target: T1, TGFβ-1 (UniProt P01137 279-390)
T1 construct: Antigen coated on ELISA plates at 1 µg/ml
Assay: method not stated; value listed for the panel of existing phage-display scFv

T1 sequence (P01137 279-390 limits assumed): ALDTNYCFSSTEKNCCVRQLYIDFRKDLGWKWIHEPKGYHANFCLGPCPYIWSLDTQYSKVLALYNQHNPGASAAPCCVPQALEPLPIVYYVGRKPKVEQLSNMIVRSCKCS

Kd: 8 nM
B1: ScFv 1 (scFv, V domains shown)
VH: EVQLVESGGGLVQPGGSLRLSCAASGYAFTNYLIEWVRQAPGKGLEWVGVINPGSGGSNYNEKFKGRATISADNSKNTLYLQMNSLRAEDTAVYYCARSGGFYFDYWGQGTLVTVSS
VL: DIQMTQSPSSLSASVGDRVTITCRASQSVLYSSNQKNYLAWYQQKPGKAPKLLIYWASTRESGVPSRFSGSGSGTDFTLTISSLQPEDFATYYCHQYLSSDTFGQGTKVEIK
